According to patent US7811992B2, “Anti-infarction molecules” (Stasys Technologies, Inc., priority 2002, dated 2010):
Where two headings read alike, the source gives them in different places. Square brackets hold non-standard residues; d marks the D form. Side chains are listed from the residue outwards. Ends that are not written are not given here. Peptide text beside a SMILES is read from it. * marks the point of attachment. Acetyl(1-adamantyl) = O=C(CC12CC3CC(CC(C3)C1)C2)*; Hyp = O=C(O)[C@@H]1C[C@@H](O)CN1; 2Thi = N[C@@H](Cc1cccs1)C(=O)O; Nicotinoyl = O=C(c1cccnc1)*; Cbz = O=C(OCc1ccccc1)*

Tests used:
[1] = target: T1, human angiotensin AT2 receptor (Homo sapiens, UniProt P50052); conditions: for Activity/inhibition ATII binding assay: compounds screened at 10 μM, % inhibition of binding at the AT2 receptor; for nH: reference data, Hill coefficient; for inhibition at 10 µM: read-out: % Inhibition ATII receptor; for % Inhibition ATII receptor: screened at 10 μM
T1 sequence (P50052 1-363): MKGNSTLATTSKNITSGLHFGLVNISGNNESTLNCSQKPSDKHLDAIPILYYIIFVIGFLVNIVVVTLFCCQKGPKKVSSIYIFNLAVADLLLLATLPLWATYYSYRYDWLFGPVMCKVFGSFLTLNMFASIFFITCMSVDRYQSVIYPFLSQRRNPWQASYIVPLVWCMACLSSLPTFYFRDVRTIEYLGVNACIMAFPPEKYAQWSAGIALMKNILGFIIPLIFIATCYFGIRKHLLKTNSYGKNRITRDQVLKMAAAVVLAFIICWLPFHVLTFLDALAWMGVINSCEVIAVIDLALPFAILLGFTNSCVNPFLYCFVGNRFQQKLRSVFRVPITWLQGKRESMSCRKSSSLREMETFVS
Experimental: HeLa cells stably transfected with a plasmid encoding the human angiotensin AT2 receptor were used to prepare membranes in modified Tris HCl pH 7.4 by standard techniques. […] Non-specific binding was estimated in the presence of 10 μM. […] Compounds were screened at 10 μM. The ATII binding studies were performed essentially like that disclosed in Whitebread, S. E. et al., Radioligand CGP42112A: a novel high affinity and high selective ligand for the characterization of angiotensin AT2 receptors.

[2] = test system: Vascular endothelial growth factor; assay: Receptor panel screen, ligand-receptor binding, FPAh 10 μM: Vascular endothelial growth factor
Text: (§1) For example, FPA was used in a screen of 150 receptors to determine which receptors FPA could interact with. One way of assessing FPA interactions is to look at the amount that FPA can modulate a given receptor relative to its natural ligand. Disclosed in tables 13 and 14 are ligand-receptor binding studies that are, for example, modulated by more than 20% (inhibition or excitation) by the human form of Fibrinopeptide-A (FPA-h).

Cholecystokinin = assay: Receptor panel screen, ligand-receptor binding, FPAh 10 μM: Cholecystokinin
Text: as §1

Estrogen ERa = target: T2, Estrogen ERa (Homo sapiens, UniProt P03372); assay: Receptor panel screen, ligand-receptor binding, FPAh 10 μM: Estrogen ERa
T2 sequence (P03372 1-595): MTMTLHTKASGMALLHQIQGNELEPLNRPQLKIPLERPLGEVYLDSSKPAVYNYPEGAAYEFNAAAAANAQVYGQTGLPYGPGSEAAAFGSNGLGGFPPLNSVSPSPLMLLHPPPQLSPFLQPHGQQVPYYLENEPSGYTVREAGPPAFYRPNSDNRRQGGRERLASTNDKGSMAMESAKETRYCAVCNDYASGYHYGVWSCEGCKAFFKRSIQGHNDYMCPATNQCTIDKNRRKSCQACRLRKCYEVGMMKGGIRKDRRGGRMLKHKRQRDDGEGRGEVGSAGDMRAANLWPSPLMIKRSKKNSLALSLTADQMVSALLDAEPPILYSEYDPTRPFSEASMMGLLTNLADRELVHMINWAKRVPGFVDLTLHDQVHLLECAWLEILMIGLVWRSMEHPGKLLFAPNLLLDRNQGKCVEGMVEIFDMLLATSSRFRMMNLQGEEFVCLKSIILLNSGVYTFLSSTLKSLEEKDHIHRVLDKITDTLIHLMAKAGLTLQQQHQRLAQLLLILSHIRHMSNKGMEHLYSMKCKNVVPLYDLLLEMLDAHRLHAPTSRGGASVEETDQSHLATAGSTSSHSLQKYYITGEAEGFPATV
Text: as §1

[3] = target: T3, Thyrotropin Releasing Hormone (Homo sapiens, UniProt P34981); assay: Receptor panel screen, ligand-receptor binding, FPAh 10 μM: Thyrotropin Releasing Hormone
T3 sequence (P34981 1-398): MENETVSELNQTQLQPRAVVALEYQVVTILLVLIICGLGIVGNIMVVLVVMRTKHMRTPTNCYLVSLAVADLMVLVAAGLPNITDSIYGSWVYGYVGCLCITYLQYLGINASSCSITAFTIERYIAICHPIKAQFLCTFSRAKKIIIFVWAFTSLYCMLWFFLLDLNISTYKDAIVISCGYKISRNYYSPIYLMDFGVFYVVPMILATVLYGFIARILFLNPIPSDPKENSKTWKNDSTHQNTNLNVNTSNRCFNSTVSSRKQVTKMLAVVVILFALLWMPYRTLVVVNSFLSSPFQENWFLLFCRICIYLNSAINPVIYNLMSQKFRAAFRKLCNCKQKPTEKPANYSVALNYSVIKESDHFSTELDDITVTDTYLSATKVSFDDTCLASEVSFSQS
Text: as §1

[4] = test system: Inositol Triphosphate IP3; assay: Receptor panel screen, ligand-receptor binding, FPAh 10 μM: Inositol Triphosphate IP3
Text: as §1

Bradykinin B1 = target: T4, Bradykinin B1 (Homo sapiens, UniProt P46663); assay: Receptor panel screen, ligand-receptor binding, FPAh 10 μM: Bradykinin B1
T4 sequence (P46663 1-353): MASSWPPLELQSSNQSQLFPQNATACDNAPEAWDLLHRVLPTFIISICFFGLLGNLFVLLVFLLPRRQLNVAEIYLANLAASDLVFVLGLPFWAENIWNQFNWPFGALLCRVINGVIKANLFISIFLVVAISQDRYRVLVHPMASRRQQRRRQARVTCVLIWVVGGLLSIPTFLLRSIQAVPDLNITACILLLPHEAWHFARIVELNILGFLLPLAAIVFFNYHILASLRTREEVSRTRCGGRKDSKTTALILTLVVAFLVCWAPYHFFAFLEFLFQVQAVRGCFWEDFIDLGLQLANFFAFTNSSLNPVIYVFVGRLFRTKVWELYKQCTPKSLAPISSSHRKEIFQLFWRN
Text: as §1

Serotonin 5-HT 2a = Serotonin 5-HT 2a (Homo sapiens, UniProt P28223); assay: Receptor panel screen, ligand-receptor binding, FPAh 10 μM: Serotonin 5-HT 2a
Sequence of Serotonin 5-HT 2a (P28223 whole entry): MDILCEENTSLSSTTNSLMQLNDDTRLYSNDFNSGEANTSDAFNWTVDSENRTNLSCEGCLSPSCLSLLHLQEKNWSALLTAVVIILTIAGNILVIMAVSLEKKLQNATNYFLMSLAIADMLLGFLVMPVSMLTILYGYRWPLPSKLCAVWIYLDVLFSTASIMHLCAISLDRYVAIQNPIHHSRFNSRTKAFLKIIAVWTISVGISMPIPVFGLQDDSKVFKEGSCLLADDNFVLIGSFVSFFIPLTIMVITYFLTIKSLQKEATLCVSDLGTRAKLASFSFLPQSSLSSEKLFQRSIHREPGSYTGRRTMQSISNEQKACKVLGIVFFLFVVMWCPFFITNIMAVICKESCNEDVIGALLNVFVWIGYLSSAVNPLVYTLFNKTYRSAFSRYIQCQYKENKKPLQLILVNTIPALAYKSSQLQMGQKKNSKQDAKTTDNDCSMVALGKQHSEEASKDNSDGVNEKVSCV
Text: as §1

Potassium Channel [Ka] = assay: Receptor panel screen, ligand-receptor binding, FPAh 10 μM: Potassium Channel [Ka]
Text: as §1

Glutamate AMPA = assay: Receptor panel screen, ligand-receptor binding, FPAh 10 μM: Glutamate AMPA
Text: as §1

Molecule | Activity/inhibition ATII binding assay [1] | % Inhibition ATII receptor [1] | other results
NC(N)=NCCC[C@H](NC(=O)[C@H](Cc1ccccc1)NC(=O)[C@@H]1CCCN1C(=O)[C@H](CO)NC(=O)[C@H](Cc1ccccc1)NC(=O)CNC(=O)[C@@H]1CCCN1C(=O)[C@@H]1CCCN1C(=O)[C@@H](N)CCCN=C(N)N)C(=O)O [Bradykinin] |  |  | Activity/inhibition ATII binding assay ([1]; 10 µM): 12%
CC[C@H](C)[C@H](NC(=O)[C@@H]1CCCN1C(=O)[C@H](Cc1c[nH]cn1)NC(=O)[C@H](CCCCNC(=O)[C@H](CCCNC(=N)N)NC(=O)OCc1ccccc1)NC(=O)[C@H](Cc1ccc(O)cc1)NC(=O)c1cccnc1)C(=O)O [CGP-42112A, nicotinic acid-Tyr-(N-benzoylcarbonyl-Arg)Lys-His-Pro-Ile-OH, reference compound] (Nicotinoyl-YK([Arg-Cbz])HPI-OH) |  |  | nH [1]: 1.1
CNCC(=O)N[C@@H](CCCN=C(N)N)C(=O)N[C@H](C(=O)N[C@@H](Cc1ccc(O)cc1)C(=O)N[C@H](C(=O)N[C@@H](Cc1cnc[nH]1)C(=O)N1CCC[C@H]1C(=O)N[C@@H](C)C(=O)O)C(C)C)C(C)C [Saralasin] |  |  | nH [1]: 0.9
N=C(N)NCCC[C@H](NC(=O)[C@H](Cc1cccs1)NC(=O)[C@@H](Cc1ccccc1)NC(=O)[C@H](CO)NC(=O)[C@H](Cc1cccs1)NC(=O)CNC(=O)[C@@H]1CCCN1C(=O)[C@@H]1CCCN1C(=O)[C@@H](N)CCCNC(=N)N)C(=O)O [VP045] (H-RPPG[2Thi]S[dF][2Thi]R-OH) |  |  | inhibition at 10 µM [1]: 53%
N=C(N)NCCC[C@H](NC(=O)[C@H](Cc1cccs1)NC(=O)[C@@H](Cc1ccccc1)NC(=O)[C@H](CO)NC(=O)[C@H](Cc1cccs1)NC(=O)CNC(=O)[C@@H]1C[C@@H](O)CN1C(=O)[C@@H]1CCCN1C(=O)[C@H](CCCNC(=N)N)NC(=O)[C@@H](CCCNC(=N)N)NC(=O)CC12CC3CC(CC(C3)C1)C2)C(=O)O [VP046] ({Acetyl(1-adamantyl)}-[dR]RP[Hyp]G[2Thi]S[dF][2Thi]R-OH) |  |  | inhibition at 10 µM [1]: 61%
CC[C@H](C)[C@H](NC(=O)[C@@H]1CCCN1C(=O)[C@H](Cc1c[nH]cn1)NC(=O)[C@@H](NC(=O)[C@H](Cc1ccc(O)cc1)NC(=O)[C@@H](NC(=O)[C@H](CCCNC(=N)N)NC(=O)CNC)C(C)C)[C@@H](C)CC)C(=O)O [[Sar^1, Ile^8] Angiotensin II] |  |  | nH [1]: 1.0
(DArg-Arg-Pro-Hyp-Gly-Thi-Ser-DTic-Oic-Arg (XRPXGXSXXR; D-residues; non-natural residues) [Hoe 140, reference compound] | 29% |  | 
ADSGE GDFLAEGGGVR (ADSGEGDFLAEGGGVR) [FPA-h, synthesized human Fibrinopeptide-A] |  |  | Stimulated [2]: 22%; Inhibited (Cholecystokinin): 33%; Inhibited (Estrogen ERa): 33%; Inhibited [3]: 23%; Inhibited [4]: 33%; Inhibited (Bradykinin B1): 24%; Stimulated (Serotonin 5-HT 2a): 21%; Inhibited (Potassium Channel [Ka]): 25%; Stimulated (Glutamate AMPA): 30%
Arg-Pro-Pro (RPP) [Bradykinin (1-3)] | −2% |  | 
Arg-Pro-Pro-Gly-Phe (RPPGF) [Bradykinin (1-5)] | 1% |  | 
Arg-Pro-Pro-Gly-Phe-Ser-DPhe-Phe-Arg (RPPGFS[dF]FR) [DPhe7] Bradykinin] | 60 9% |  | 
Arg-Pro-Pro-Gly-Thi-Ser-DPhe-Thi-Arg (RPPG[2Thi]S[dF][2Thi]R) [[Thi5,8,DPhe7] Bradykinin] | 53% |  | 
DArg-Arg-Pro-Hyp-Gly-Igl-Ser-Dlgl-Oic-Arg (XRPXGXSXXR; D-residues; non-natural residues) [B9430] | 70% |  | 
DArg-Arg-Pro-Hyp-Gly-Thi-Ser-Dlgl Oic-Arg (XRPXGXSXXR; D-residues; non-natural residues) [B9340] | 35% |  | 
N-Adamantaneacetyl-DArg-Arg-Pro-Hyp-Gly-Thi-Ser-DPhe-Thi-Arg | 61% |  | 
N-Admantanecarbonyl-DArg0-HyP3, Thi5,8, DPhe7] Bradykinin | 63% |  | 
PPGFSP [Bradykinin (2-7)] | −6% |  | 
PPGFSPFR [Bradykinin (2-9)] | −13% |  | 
RPPGFS [Bradykinin (1-6)] | −12% |  | 
VP042 (XRPXGXSXXR; D-residues; non-natural residues) |  | 29% | 
VP043 (RPPGFS[dF]FR) |  | 9% | 
VP052 (RPPGFSPYR) |  | −1% | 
VP057 (RPP) |  | −2% | 
VP058 (RPPGF) |  | 1% | 
VP059 (RPPGFS) |  | −12% | 
VP061 (PPGFSP) |  | −6% | 
VP062 (PPGFSPFR) |  | −13% | 
VP063 (XRPXGXSXXR; D-residues; non-natural residues) |  | 35% | 
VP064 (XRPXGXSXXR; D-residues; non-natural residues) |  | 70% | 
